# According to patent US20230322953A1 (HARBOUR BIOMED SHANGHAI, published 2023):
# Substitutions are numbered along the chain they refer to.
# T1: human BCMA (human, UniProt Q02223 1-184)
# T1 construct: whole, on cells; also called hBCMA; TNFRSF17
# T1 sequence (looked up): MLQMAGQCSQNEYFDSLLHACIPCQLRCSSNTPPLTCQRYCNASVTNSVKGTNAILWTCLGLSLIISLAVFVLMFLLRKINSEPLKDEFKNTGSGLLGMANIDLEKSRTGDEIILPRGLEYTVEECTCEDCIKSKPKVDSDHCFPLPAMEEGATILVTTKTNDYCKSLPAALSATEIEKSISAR
# B1: PR003869 (bispecific antibody, human IgG1, lambda, L234A L235A)
# light: QAVVTQEPSLTVSPGGTVTLTCRSSTGAVTTSNYANWVQQKPGQAPRGLIGGTNKRAPWTPARFSGSLLGDKAALTLLGAQPEDEAEYFCALWYSNLWVFGGGTKLTVLGQPKAAPSVTLFPPSSEELQANKATLVCLISDFYPGAVTVAWKADSSPVKAGVETTTPSKQSNNKYAASSYLSLTPEQWKSHRSYSCQVTHEGSTVEKTVAPTECS
# heavy: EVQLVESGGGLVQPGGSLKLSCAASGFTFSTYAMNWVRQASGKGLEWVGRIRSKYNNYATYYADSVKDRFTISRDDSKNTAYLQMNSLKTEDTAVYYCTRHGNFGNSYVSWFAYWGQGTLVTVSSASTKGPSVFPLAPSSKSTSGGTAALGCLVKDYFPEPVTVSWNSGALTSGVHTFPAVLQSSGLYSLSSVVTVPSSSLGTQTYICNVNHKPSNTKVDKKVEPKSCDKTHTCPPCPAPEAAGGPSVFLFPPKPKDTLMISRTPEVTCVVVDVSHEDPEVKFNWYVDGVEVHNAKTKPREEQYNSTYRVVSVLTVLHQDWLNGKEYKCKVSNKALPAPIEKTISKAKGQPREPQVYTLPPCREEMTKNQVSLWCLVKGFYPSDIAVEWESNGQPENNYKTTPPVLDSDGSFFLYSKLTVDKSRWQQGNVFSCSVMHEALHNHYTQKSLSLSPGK
# chain: EVQLVETGGGLIQPGGSLRLSCAASGFTVSDSYMTWVRQAPGKGLEWVSVIFSGGRTYYSDSVKGRFTISRDNAKNTLYLQMNSLRAEDTALYYCARRNYDQTLGTDVFDIWGQGTMVTVSSASEPKSSDKTHTCPPCPAPEAAGGPSVFLFPPKPKDTLMISRTPEVTCVVVDVSHEDPEVKFNWYVDGVEVHNAKTKPREEQYNSTYRVVSVLTVLHQDWLNGKEYKCKVSNKALPAPIEKTISKAKGQPREPQVCTLPPSREEMTKNQVSLSCAVKGFYPSDIAVEWESNGQPENNYKTTPPVLDSDGSFFLVSKLTVDKSRWQQGNVFSCSVMHEALHNHYTQKSLSLSPGK
# notes: BCMAxCD3, Fab-Fc-VH (structure 11); CD3 Fab of PR003886, BCMA VH of PR004564; IgG1 knob/hole, LALA
# B2: PR003870 (bispecific antibody, human IgG1, lambda, L234A L235A)
# light: B1 light
# heavy: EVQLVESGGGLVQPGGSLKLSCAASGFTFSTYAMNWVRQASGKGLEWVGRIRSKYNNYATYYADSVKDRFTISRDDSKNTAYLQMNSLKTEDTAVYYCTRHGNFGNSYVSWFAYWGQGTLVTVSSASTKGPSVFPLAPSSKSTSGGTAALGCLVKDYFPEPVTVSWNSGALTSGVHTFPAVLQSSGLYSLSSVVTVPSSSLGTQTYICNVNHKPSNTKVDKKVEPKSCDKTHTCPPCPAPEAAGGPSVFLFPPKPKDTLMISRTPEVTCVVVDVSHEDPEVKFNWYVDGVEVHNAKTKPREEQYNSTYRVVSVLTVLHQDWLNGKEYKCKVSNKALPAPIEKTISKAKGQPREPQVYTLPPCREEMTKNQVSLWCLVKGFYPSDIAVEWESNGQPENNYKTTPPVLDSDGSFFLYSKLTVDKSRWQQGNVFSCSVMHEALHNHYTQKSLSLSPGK
# chain: B1 chain with S32A, R56N, Y59V, L104I
# notes: BCMAxCD3, Fab-Fc-VH (structure 11); CD3 Fab of PR003886, BCMA VH of PR004565; IgG1 knob/hole, LALA
# B3: PR001998 (bispecific antibody, IgG1)
# chain 1: EVQLLESGGGLVQPGGSLRLSCAASGFTFNTYAMNWVRQAPGKGLEWVSRIRSKYNNYATYYADSVKDRFTISRDDSKSTLYLQMNSLRAEDTAVYYCVRHGNFGNSYVSWFAYWGQGTLVTVSSASTKGPSVFPLAPSSKSTSGGTAALGCLVKDYFPEPVTVSWNSGALTSGVHTFPAVLQSSGLYSLSSVVTVPSSSLGTQTYICNVNHKPSNTKVDKKVEPKSC
# chain 2: QAVVTQEPSLTVSPGGTVTLTCRSSTGAVTTSNYANWVQQKPGQAPRGLIGGTNKRAPWTPARFSGSLLGDKAALTLLGAQPEDEAEYFCALWYSNLWVFGGGTKLTVLGQPKAAPSVTLFPPSSEELQANKATLVCLISDFYPGAVTVAWKADSSPVKAGVETTTPSKQSNNKYAASSYLSLTPEQWKSHRSYSCQVTHEGSTVEKTVAPTECSDKTHTCPPCPAPEAAGGPSVFLFPPKPKDTLMISRTPEVTCVVVDVSHEDPEVKFNWYVDGVEVHNAKTKPREEQYNSTYRVVSVLTVLHQDWLNGKEYKCKVSNKALGAPIEKTISKAKGQPREPQVYTLPPCREEMTKNQVSLWCLVKGFYPSDIAVEWESNGQPENNYKTTPPVLDSDGSFFLYSKLTVDKSRWQQGNVFSCSVMHEALHNHYTQKSLSLSPGK
# chain 3: B1 chain with S32N, R56N, S60A, Q102D, L104R, P238G
# notes: BCMAxCD3, Fab(cross Fd/LC)-Fc-VH (structure 13); CD3 of PR000511, BCMA VH of PR001046; IgG1 knob/hole, AAG
# B4: PR003872 (bispecific antibody, human IgG1, lambda, L234A L235A)
# light: B1 light
# heavy: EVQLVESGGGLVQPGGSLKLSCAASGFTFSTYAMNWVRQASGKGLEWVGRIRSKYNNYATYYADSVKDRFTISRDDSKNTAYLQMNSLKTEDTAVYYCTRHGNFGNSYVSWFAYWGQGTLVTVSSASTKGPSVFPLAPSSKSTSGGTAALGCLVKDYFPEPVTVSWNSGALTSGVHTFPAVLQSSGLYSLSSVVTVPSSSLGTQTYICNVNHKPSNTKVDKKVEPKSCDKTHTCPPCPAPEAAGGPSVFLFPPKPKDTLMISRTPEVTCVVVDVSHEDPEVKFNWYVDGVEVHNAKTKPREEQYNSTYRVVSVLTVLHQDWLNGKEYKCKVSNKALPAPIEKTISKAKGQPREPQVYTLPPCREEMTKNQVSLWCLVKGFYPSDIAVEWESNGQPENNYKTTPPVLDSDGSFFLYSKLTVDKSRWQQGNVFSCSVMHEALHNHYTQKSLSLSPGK
# chain: B1 chain with R56K, Y59V, S60A, L104R
# notes: BCMAxCD3, Fab-Fc-VH (structure 11); CD3 Fab of PR003886, BCMA VH of PR004567; IgG1 knob/hole, LALA
# B5: PR001995 (bispecific antibody, IgG1)
# chain 1: B3 chain 1
# chain 2: B3 chain 2
# chain 3: EVQLLESGGGLVQPGGSLRLSCAASGFTFSSYAMIWVRQAPGKGLEWVSGISESGGSTYYADSVKGRFTISRDNSKNTLYLQMNSLRAEDTAVYFCVKDLDDILTGYYKDYWGQGTLVTVSSASEPKSSDKTHTCPPCPAPEAAGGPSVFLFPPKPKDTLMISRTPEVTCVVVDVSHEDPEVKFNWYVDGVEVHNAKTKPREEQYNSTYRVVSVLTVLHQDWLNGKEYKCKVSNKALGAPIEKTISKAKGQPREPQVCTLPPSREEMTKNQVSLSCAVKGFYPSDIAVEWESNGQPENNYKTTPPVLDSDGSFFLVSKLTVDKSRWQQGNVFSCSVMHEALHNHYTQKSLSLSPGK
# notes: CD3 of PR000511, BCMA VH of PR000940; IgG1 knob/hole, AAG
# B6: PR001999 (bispecific antibody, IgG1)
# chain 1: QAVVTQEPSLTVSPGGTVTLTCRSSTGAVTTSNYANWVQQKPGQAPRGLIGGTNKRAPWTPARFSGSLLGDKAALTLLGAQPEDEAEYFCALWYSNLWVFGGGTKLTVLGGGQSGQGGSGGGGSEVQLVESGGGLVQPGGSLKLSCAASGFTFNTYAMNWVRQASGKGLEWVGRIRSKYNNYATYYADSVKDRFTISRDDSKSTLYLQMNSLKTEDTAVYYCVRHGNFGNSYVSWFAYWGQGTLVTVSSASEPKSSDKTHTCPPCPAPEAAGGPSVFLFPPKPKDTLMISRTPEVTCVVVDVSHEDPEVKFNWYVDGVEVHNAKTKPREEQYNSTYRVVSVLTVLHQDWLNGKEYKCKVSNKALGAPIEKTISKAKGQPREPQVYTLPPCREEMTKNQVSLWCLVKGFYPSDIAVEWESNGQPENNYKTTPPVLDSDGSFFLYSKLTVDKSRWQQGNVFSCSVMHEALHNHYTQKSLSLSPGK
# chain 2: B5 chain 3
# notes: CD3 scFv of PR000510, BCMA VH of PR000940; IgG1 knob/hole, AAG
# B7: PR001996 (bispecific antibody, IgG1)
# chain 1: B3 chain 1
# chain 2: B3 chain 2
# chain 3: EVQLVETGGGLIQPGGSLRLSCAASGFPVSSNYMSWVRQAPGKGLEWVSVIFSGGRTYYADSVKGRFTISRDNSKNTLYLQMNSLRAEDTAVYYCARRNWIDGRDAFDIWGQGTMVTVSSASEPKSSDKTHTCPPCPAPEAAGGPSVFLFPPKPKDTLMISRTPEVTCVVVDVSHEDPEVKFNWYVDGVEVHNAKTKPREEQYNSTYRVVSVLTVLHQDWLNGKEYKCKVSNKALGAPIEKTISKAKGQPREPQVCTLPPSREEMTKNQVSLSCAVKGFYPSDIAVEWESNGQPENNYKTTPPVLDSDGSFFLVSKLTVDKSRWQQGNVFSCSVMHEALHNHYTQKSLSLSPGK
# notes: BCMAxCD3, Fab(cross Fd/LC)-Fc-VH (structure 13); CD3 of PR000511, BCMA VH of PR000943; IgG1 knob/hole, AAG
# B8: PR001997 (bispecific antibody, IgG1)
# chain 1: B3 chain 1
# chain 2: B3 chain 2
# chain 3: B7 chain 3 with P28T, S35T, R56S, N99I, W100A, I101V, D102A, R104H, A106V
# notes: BCMAxCD3, Fab(cross Fd/LC)-Fc-VH (structure 13); CD3 of PR000511, BCMA VH of PR001035; IgG1 knob/hole, AAG
# Biological target: T1, human BCMA
# Assay: FACS on NCI-H929 cells
# Experimental: This example is intended to investigate the binding activity of anti-BCMA HCAb antibodies to human and cynomolgus monkey BCMAs. […] Specifically, HEK293T/hBCMA cells and HEK293T/cyno BCMA cells were digested and resuspended in a DMEM complete medium. In addition, NCI-H929 cell suspension was collected. The density of each of the three cells was adjusted to 1×10⁶ cells/mL. […] The cells were incubated at 4° C. for 1 h away from light. Thereafter, the cells in each well were rinsed twice with 100 μL of pre-cooled PBS, and centrifuged at 500 g at 4° C. for 5 min, and then the supernatant was discarded. […] The cells in each well were rinsed twice with 100 μL of pre-cooled PBS, and centrifuged at 500 g at 4° C. for 5 min, and then the supernatant was discarded. Finally, the cells in each well were resuspended in 200 μL of pre-cooled PBS. Fluorescence signal values were read using a BD FACS CANTOII flow cytometer or an ACEA NovoCyte flow cytometer, and the data were processed and analyzed using FlowJo v10 (FlowJo, LLC) software. The data were processed and analyzed by plotting using GraphPad Prism 8 software, and binding curves of the antibodies to target cells, EC₅₀ values and other parameters were obtained through four-parameter nonlinear fitting.
EC50 [nM],Maximum MFI,Binder
1.7,12500,B1
3.3,10600,B2
,3260,B3
1.1,11300,B4
,2590,B5
,3480,B6
,3320,B7
,1460,B8
